From US20230357348A1 (AstraZeneca / MedImmune, published 2023)
Starred links: 1 amine or outer side, 2 acyl side, 3 side chain; linkers in the order of their positions; H or OH if unused. Non-standard residues stand in square brackets, D forms with d. Groups on a side chain read outwards from the residue. No end group written: not given here. *: point of attachment. β‑dimethylGln = β-dimethylglutamine, CC(C)(CC(N)=O)[C@H](N[*:1])C(=O)[*:2]; C20 diacid = O=C(O)CCCCCCCCCCCCCCCCCCC(=O)*; C18 diacid = O=C(O)CCCCCCCCCCCCCCCCC(=O)*; γGlu = O=C(O)[C@H](CCC(=O)[*:2])N[*:1]; αMeF = C[C@](N)(Cc1ccccc1)C(=O)O; NMeQ = CN[C@@H](CCC(N)=O)C(=O)O; AEEA = NCCOCCOCC(=O)O; Aib = CC(C)(N)C(=O)O

B1: Peptide 298 (peptide)
peptide: H[Aib]HGS[αMeF]TSDVSR[αMeF]LDSRAAK([AEEA-AEEA-γGlu-γGlu-C20 diacid])D[αMeF]VQ[Aib]IANT-NH2
modifications: N-terminus assumed
SMILES: CC[C@H](C)[C@H](NC(=O)C(C)(C)NC(=O)[C@H](CCC(N)=O)NC(=O)[C@@H](NC(=O)[C@](C)(Cc1ccccc1)NC(=O)[C@H](CC(=O)O)NC(=O)[C@H](CCCCNC(=O)COCCOCCNC(=O)COCCOCCNC(=O)CC[C@H](NC(=O)CC[C@H](NC(=O)CCCCCCCCCCCCCCCCCCC(=O)O)C(=O)O)C(=O)O)NC(=O)[C@H](C)NC(=O)[C@H](C)NC(=O)[C@H](CCCNC(=N)N)NC(=O)[C@H](CO)NC(=O)[C@H](CC(=O)O)NC(=O)[C@H](CC(C)C)NC(=O)[C@](C)(Cc1ccccc1)NC(=O)[C@H](CCCNC(=N)N)NC(=O)[C@H](CO)NC(=O)[C@@H](NC(=O)[C@H](CC(=O)O)NC(=O)[C@H](CO)NC(=O)[C@@H](NC(=O)[C@](C)(Cc1ccccc1)NC(=O)[C@H](CO)NC(=O)CNC(=O)[C@H](Cc1c[nH]cn1)NC(=O)C(C)(C)NC(=O)[C@@H](N)Cc1c[nH]cn1)[C@@H](C)O)C(C)C)C(C)C)C(=O)N[C@@H](C)C(=O)N[C@@H](CC(N)=O)C(=O)N[C@H](C(N)=O)[C@@H](C)O
B2: Peptide 300 (peptide)
peptide: H[Aib]HGS[αMeF]TSDVSK[αMeF]LDSRAAK([AEEA-AEEA-γGlu-C18 diacid])D[αMeF]VQ[Aib]IAET-NH2
modifications: N-terminus assumed
SMILES: CC[C@H](C)[C@H](NC(=O)C(C)(C)NC(=O)[C@H](CCC(N)=O)NC(=O)[C@@H](NC(=O)[C@](C)(Cc1ccccc1)NC(=O)[C@H](CC(=O)O)NC(=O)[C@H](CCCCNC(=O)COCCOCCNC(=O)COCCOCCNC(=O)CC[C@H](NC(=O)CCCCCCCCCCCCCCCCC(=O)O)C(=O)O)NC(=O)[C@H](C)NC(=O)[C@H](C)NC(=O)[C@H](CCCNC(=N)N)NC(=O)[C@H](CO)NC(=O)[C@H](CC(=O)O)NC(=O)[C@H](CC(C)C)NC(=O)[C@](C)(Cc1ccccc1)NC(=O)[C@H](CCCCN)NC(=O)[C@H](CO)NC(=O)[C@@H](NC(=O)[C@H](CC(=O)O)NC(=O)[C@H](CO)NC(=O)[C@@H](NC(=O)[C@](C)(Cc1ccccc1)NC(=O)[C@H](CO)NC(=O)CNC(=O)[C@H](Cc1c[nH]cn1)NC(=O)C(C)(C)NC(=O)[C@@H](N)Cc1c[nH]cn1)[C@@H](C)O)C(C)C)C(C)C)C(=O)N[C@@H](C)C(=O)N[C@@H](CCC(=O)O)C(=O)N[C@H](C(N)=O)[C@@H](C)O
B3: Peptide 324 (peptide)
peptide: HS[β‑dimethylGln]GS[αMeF]TSDVSK[αMeF]LDSRAAK([AEEA-AEEA-γGlu-C18 diacid])D[αMeF]VQ[Aib]IANT-NH2
modifications: N-terminus assumed
SMILES: CC[C@H](C)[C@H](NC(=O)C(C)(C)NC(=O)[C@H](CCC(N)=O)NC(=O)[C@@H](NC(=O)[C@](C)(Cc1ccccc1)NC(=O)[C@H](CC(=O)O)NC(=O)[C@H](CCCCNC(=O)COCCOCCNC(=O)COCCOCCNC(=O)CC[C@H](NC(=O)CCCCCCCCCCCCCCCCC(=O)O)C(=O)O)NC(=O)[C@H](C)NC(=O)[C@H](C)NC(=O)[C@H](CCCNC(=N)N)NC(=O)[C@H](CO)NC(=O)[C@H](CC(=O)O)NC(=O)[C@H](CC(C)C)NC(=O)[C@](C)(Cc1ccccc1)NC(=O)[C@H](CCCCN)NC(=O)[C@H](CO)NC(=O)[C@@H](NC(=O)[C@H](CC(=O)O)NC(=O)[C@H](CO)NC(=O)[C@@H](NC(=O)[C@](C)(Cc1ccccc1)NC(=O)[C@H](CO)NC(=O)CNC(=O)[C@@H](NC(=O)[C@H](CO)NC(=O)[C@@H](N)Cc1c[nH]cn1)C(C)(C)CC(N)=O)[C@@H](C)O)C(C)C)C(C)C)C(=O)N[C@@H](C)C(=O)N[C@@H](CC(N)=O)C(=O)N[C@H](C(N)=O)[C@@H](C)O
B4: Peptide 296 (peptide)
peptide: H[Aib]HGS[αMeF]TSDVSK[Aib]LDSRAAK([AEEA-AEEA-γGlu-C18 diacid])D[αMeF]VQ[Aib]IANT-NH2
modifications: N-terminus assumed
SMILES: CC[C@H](C)[C@H](NC(=O)C(C)(C)NC(=O)[C@H](CCC(N)=O)NC(=O)[C@@H](NC(=O)[C@](C)(Cc1ccccc1)NC(=O)[C@H](CC(=O)O)NC(=O)[C@H](CCCCNC(=O)COCCOCCNC(=O)COCCOCCNC(=O)CC[C@H](NC(=O)CCCCCCCCCCCCCCCCC(=O)O)C(=O)O)NC(=O)[C@H](C)NC(=O)[C@H](C)NC(=O)[C@H](CCCNC(=N)N)NC(=O)[C@H](CO)NC(=O)[C@H](CC(=O)O)NC(=O)[C@H](CC(C)C)NC(=O)C(C)(C)NC(=O)[C@H](CCCCN)NC(=O)[C@H](CO)NC(=O)[C@@H](NC(=O)[C@H](CC(=O)O)NC(=O)[C@H](CO)NC(=O)[C@@H](NC(=O)[C@](C)(Cc1ccccc1)NC(=O)[C@H](CO)NC(=O)CNC(=O)[C@H](Cc1c[nH]cn1)NC(=O)C(C)(C)NC(=O)[C@@H](N)Cc1c[nH]cn1)[C@@H](C)O)C(C)C)C(C)C)C(=O)N[C@@H](C)C(=O)N[C@@H](CC(N)=O)C(=O)N[C@H](C(N)=O)[C@@H](C)O
B5: Peptide 325 (peptide)
peptide: HS[NMeQ]GS[αMeF]TSDVSK[αMeF]LDSRAAK([AEEA-AEEA-γGlu-C18 diacid])D[αMeF]VQ[Aib]IANT-NH2
modifications: N-terminus assumed
SMILES: CC[C@H](C)[C@H](NC(=O)C(C)(C)NC(=O)[C@H](CCC(N)=O)NC(=O)[C@@H](NC(=O)[C@](C)(Cc1ccccc1)NC(=O)[C@H](CC(=O)O)NC(=O)[C@H](CCCCNC(=O)COCCOCCNC(=O)COCCOCCNC(=O)CC[C@H](NC(=O)CCCCCCCCCCCCCCCCC(=O)O)C(=O)O)NC(=O)[C@H](C)NC(=O)[C@H](C)NC(=O)[C@H](CCCNC(=N)N)NC(=O)[C@H](CO)NC(=O)[C@H](CC(=O)O)NC(=O)[C@H](CC(C)C)NC(=O)[C@](C)(Cc1ccccc1)NC(=O)[C@H](CCCCN)NC(=O)[C@H](CO)NC(=O)[C@@H](NC(=O)[C@H](CC(=O)O)NC(=O)[C@H](CO)NC(=O)[C@@H](NC(=O)[C@](C)(Cc1ccccc1)NC(=O)[C@H](CO)NC(=O)CNC(=O)[C@H](CCC(N)=O)N(C)C(=O)[C@H](CO)NC(=O)[C@@H](N)Cc1c[nH]cn1)[C@@H](C)O)C(C)C)C(C)C)C(=O)N[C@@H](C)C(=O)N[C@@H](CC(N)=O)C(=O)N[C@H](C(N)=O)[C@@H](C)O

These binders were tested against human GLP-1 receptor (human, UniProt P43220 24-463) (assay: cell-based or functional assay).

| Binder | hGLP-1R EC50 (pM), cAMP [pM] |
| --- | --- |
| H[Aib]HGS[αMeF]TSDVSKYLDSRAAKDFVQWIANT-NH2 (not fully specified (residue 20); also: F6: αMePhe per table) [Peptide 292] | 28.7 |
| H[Aib]QGTFTSDVSK[αMeF]LDSRAAK([AEEA-AEEA-γGlu-C18 diacid])DFVQWIANT-NH2 (not fully specified) [Peptide 318] | 55.2 |
| B1 | 75.5 |
| H[Aib]QGTFTSDVSK[αMeF]LDSRAAK([AEEA-AEEA-γGlu-C18 diacid])DFVQ[Aib]LVAT-NH2 (not fully specified) [Peptide 315] | 18.1 |
| H[Aib]HGS[αMeF]TSDVSK[αMeF]LDSRAAK([AEEA-AEEA-γGlu-γGlu-C20 diacid])D[αMeF]VQ[Aib]IANT-NH2 (not fully specified) [Peptide 305] | 211 |
| B2 | 19.7 |
| H[Aib]HGS[αMeF]TSDVSK[αMeF]LDSRAAK([AEEA-AEEA-γGlu-C18 diacid])DFVQ[Aib]IANT-NH2 (not fully specified; also: Y13: αMePhe per table) [Peptide 287] | 27.5 |
| B3 | 1330 |
| H[Aib]HGS[αMeF]TSDVSK[αMeF]LDSRAAK([AEEA-AEEA-γGlu-γGlu-C20 diacid])D[αMeF]IA[Aib]IAET-NH2 [Peptide 302] | 151 |
| B4 | 64.1 |
| H[Aib]QGS[αMeF]TSDVSK[αMeF]LDSRAAK([AEEA-AEEA-γGlu-γGlu-C20 diacid])D[αMeF]VQ[Aib]IANT-NH2 [Peptide 322] | 68.3 |
| H[Aib]HGS[αMeF]TSDVSK[αMeF]LDSRAAK([AEEA-AEEA-γGlu-γGlu-C20 diacid])D[αMeF]VQ[Aib]IANT-OH [Peptide 304] | 239 |
| B5 | 929 |
| H[Aib]HGS[αMeF]TSDVSK[αMeF]LDSRAAK([AEEA-AEEA-γGlu-C18 diacid])D[αMeF]VQWIANT-NH2 (not fully specified; also: F22: αMePhe per table) [Peptide 288] | 42.7 |

Each binder was assayed against human glucagon receptor (human, UniProt P47871 26-477) (assay: cell-based or functional assay).
human glucagon receptor, sequence (P47871 26-477): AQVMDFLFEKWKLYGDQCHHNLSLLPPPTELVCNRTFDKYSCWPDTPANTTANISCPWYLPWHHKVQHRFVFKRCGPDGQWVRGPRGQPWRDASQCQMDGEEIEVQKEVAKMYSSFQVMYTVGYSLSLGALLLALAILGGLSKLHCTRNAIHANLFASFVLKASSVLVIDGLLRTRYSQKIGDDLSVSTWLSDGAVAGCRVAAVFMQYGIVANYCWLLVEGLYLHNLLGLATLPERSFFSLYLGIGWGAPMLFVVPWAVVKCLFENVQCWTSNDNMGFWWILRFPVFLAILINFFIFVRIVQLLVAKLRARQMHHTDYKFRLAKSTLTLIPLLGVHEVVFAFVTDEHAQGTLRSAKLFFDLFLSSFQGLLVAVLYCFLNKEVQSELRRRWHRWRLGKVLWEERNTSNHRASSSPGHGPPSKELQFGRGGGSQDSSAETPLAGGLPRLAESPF

| Binder | hGluc-R EC50 (pM), cAMP [pM] |
| --- | --- |
| H[Aib]HGS[αMeF]TSDVSKYLDSRAAKDFVQWIANT-NH2 (not fully specified (residue 20); also: F6: αMePhe per table) [Peptide 292] | 20.4 |
| H[Aib]QGTFTSDVSK[αMeF]LDSRAAK([AEEA-AEEA-γGlu-C18 diacid])DFVQWIANT-NH2 (not fully specified) [Peptide 318] | 12000 |
| B1 | 573 |
| H[Aib]QGTFTSDVSK[αMeF]LDSRAAK([AEEA-AEEA-γGlu-C18 diacid])DFVQ[Aib]LVAT-NH2 (not fully specified) [Peptide 315] | 5850 |
| H[Aib]HGS[αMeF]TSDVSK[αMeF]LDSRAAK([AEEA-AEEA-γGlu-γGlu-C20 diacid])D[αMeF]VQ[Aib]IANT-NH2 (not fully specified) [Peptide 305] | 155 |
| B2 | 18.4 |
| H[Aib]HGS[αMeF]TSDVSK[αMeF]LDSRAAK([AEEA-AEEA-γGlu-C18 diacid])DFVQ[Aib]IANT-NH2 (not fully specified; also: Y13: αMePhe per table) [Peptide 287] | 26.5 |
| B3 | 1930 |
| H[Aib]HGS[αMeF]TSDVSK[αMeF]LDSRAAK([AEEA-AEEA-γGlu-γGlu-C20 diacid])D[αMeF]IA[Aib]IAET-NH2 [Peptide 302] | 271 |
| B4 | 3250 |
| H[Aib]QGS[αMeF]TSDVSK[αMeF]LDSRAAK([AEEA-AEEA-γGlu-γGlu-C20 diacid])D[αMeF]VQ[Aib]IANT-NH2 [Peptide 322] | > 24700 |
| H[Aib]HGS[αMeF]TSDVSK[αMeF]LDSRAAK([AEEA-AEEA-γGlu-γGlu-C20 diacid])D[αMeF]VQ[Aib]IANT-OH [Peptide 304] | 687 |
| B5 | > 25500 |
| H[Aib]HGS[αMeF]TSDVSK[αMeF]LDSRAAK([AEEA-AEEA-γGlu-C18 diacid])D[αMeF]VQWIANT-NH2 (not fully specified; also: F22: αMePhe per table) [Peptide 288] | 26.9 |
